Results reported in publication PMC11472067.

Biological target: histone H2B tagged to mCherry (H2B-mCh) (UniProt P06899)
Test: FRET or BRET; phasor FLIM-FRET in live HeLa nuclei; donor eGFP-HP1α or eGFP-HP1α_(I165E) (stable, endogenous HP1α knocked down), acceptor H2B-mCh transiently transfected; fraction of pixels exhibiting FRET read as chromatin binding

fraction of pixels exhibiting FRET (chromatin binding)	Substance
11%	eGFP tagged to HP1α dimer mutant I165E (eGFP-HP1α_(I165E)) (from UniProt P45973 1-191) (natural protein)
20%	eGFP tagged to wild type HP1α (eGFP-HP1α) (from UniProt P45973 1-191) (natural protein)
